For test [1], the target named is endogenous VPS26 (UniProt O75436). As to the kind of experiment: GFP-based co-IP, western blot band quantification. Conditions: HEK293T cells, transient transfection; normalised to GFP band intensity; n = 3; parent: est. 100; read off a plot. (In general: In western blotting, separated proteins are transferred to a membrane and probed.)
Test [2] addresses hRetromer (recombinant Retromer trimer) (human) (UniProt Q96QK1). The experiment in a line: ITC; Microcal PEAQ-ITC, 25 °C; 1 mM peptide or 530 µM TBC1D13 titrated into 14 µM Retromer; single-site model; mean of triplicate titrations. (ITC needs no label: the signal is the heat of the interaction.)

Data on 5 substances can be found in PMC12311110.

Sequence of recombinant full-length human TBC1D13 (Q9NVG8 whole entry): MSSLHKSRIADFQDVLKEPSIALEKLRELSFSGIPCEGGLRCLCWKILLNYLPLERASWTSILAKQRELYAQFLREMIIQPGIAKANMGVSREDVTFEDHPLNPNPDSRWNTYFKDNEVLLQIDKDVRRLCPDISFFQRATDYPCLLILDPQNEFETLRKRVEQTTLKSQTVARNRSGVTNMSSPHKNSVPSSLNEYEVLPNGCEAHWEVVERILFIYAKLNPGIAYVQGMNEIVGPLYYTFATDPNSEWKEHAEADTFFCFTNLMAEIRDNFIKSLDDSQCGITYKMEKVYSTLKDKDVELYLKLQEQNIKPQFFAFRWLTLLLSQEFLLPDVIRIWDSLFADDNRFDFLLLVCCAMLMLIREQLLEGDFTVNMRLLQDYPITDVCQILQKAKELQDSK

Consider “GFP-VPS29 wild-type (from UniProt Q9UBQ0) L152E”, for which, in test [1], the percent of parent (relative intensity (WT = 100)) worked out at 110.
Regarding “GFP-VPS29 wild-type (from UniProt Q9UBQ0) V174D”, the percent of parent (relative intensity (WT = 100)) in test [1] was 170.
On the same count and under the same terms, the figure for “VPS35-GFP WT (from UniProt Q96QK1) I218D” is 120.
As usually defined, the Kd is the equilibrium constant for the complex coming apart. human DENND4C peptide 1189-1206: in test [2], the Kd was 15.4 µM and the dH is -10.1 kcal/mol.
“recombinant full-length human TBC1D13 (from UniProt Q9NVG8 1-400) (natural protein)”: in test [2], the Kd was found to be 6.3 µM and the dH is -8.1 kcal/mol.
